Experimental data published in patent publication US6156557A, “Alkaline protease from streptomyces sp. and method for preparing the same” (Toto Ltd., priority 1998, dated 2000).

B1: Subtilisin Carlsberg: conventional alkaline protease, subtilisin Carlsberg (protein, UniProt P00780 106-379, looked up)
Subtilisin Carlsberg: AQTVPYGIPLIKADKVQAQGFKGANVKVAVLDTGIQASHPDLNVVGGASFVAGEAYNTDGNGHGTHVAGTVAALDNTTGVLGVAPSVSLYAVKVLNSSGSGSYSGIVSGIEWATTNGMDVINMSLGGASGSTAMKQAVDNAYAKGVVVVAAAGNSGSSGNTNTIGYPAKYDSVIAVGAVDSNSNRASFSSVGAELEVMAPGAGVYSTYPTNTYATLNGTSMASPHVAGAAALILSKHPNLSASQVRNRLSSTATYLGSSFYYGKGLINVEAAAQ
B2: Subtilisin B. subtilis: conventional alkaline protease, subtilisin of B. subtilis (protein, UniProt P04189 107-381, looked up)
Subtilisin E: AQSVPYGISQIKAPALHSQGYTGSNVKVAVIDSGIDSSHPDLNVRGGASFVPSETNPYQDGSSHGTHVAGTIAALNNSIGVLGVAPSASLYAVKVLDSTGSGQYSWIINGIEWAISNNMDVINMSLGGPTGSTALKTVVDKAVSSGIVVAAAAGNEGSSGSTSTVGYPAKYPSTIAVGAVNSSNQRASFSSAGSELDVMAPGVSIQSTLPGGTYGAYNGTSMATPHVAGAAALILSKHPTWTNAQVRDRLESTATYLGNSFYYGKGLINVQAAAQ
B3: Subtilisin BPN^1: conventional alkaline protease, subtilisin BPN (protein, UniProt P00782 108-382, looked up)
Subtilisin BPN': AQSVPYGVSQIKAPALHSQGYTGSNVKVAVIDSGIDSSHPDLKVAGGASMVPSETNPFQDNNSHGTHVAGTVAALNNSIGVLGVAPSASLYAVKVLGADGSGQYSWIINGIEWAIANNMDVINMSLGGPSGSAALKAAVDKAVASGVVVVAAAGNEGTSGSSSTVGYPGKYPSVIAVGAVDSSNQRASFSSVGPELDVMAPGVSIQSTLPGNKYGAYNGTSMASPHVAGAAALILSKHPNWTNTQVRSSLENTTTKLGDSFYYGKGLINVQAAAQ

Assays:
alkaline protease = assay type: biochemical, Streptomyces sp. TOTO-9305; settings: for Residual Activity: pH 9
casein [1] = settings: known alkaline proteases, values from References 1-3; cited from earlier work
[2] = known alkaline proteases, values from References 1-3; cited from earlier work
[3] = known alkaline proteases, values from References 1-3; cited from earlier work; remark: listed apart in the source
casein [4] = settings: known alkaline proteases, values from References 1-3; cited from earlier work; remark: listed apart in the source
keratin = settings: known alkaline proteases, values from Reference 3; cited from earlier work

| Molecule | inhibition of the activity of the enzyme (in words) (alkaline protease) | Residual Activity (alkaline protease) | Specific Activity: Casein (casein [1]) | Isoelectric Point [2] | Optimum Temp. [3] | Optimum pH: Casein (casein [4]) | Specific Activity: Keratin (keratin) |
| --- | --- | --- | --- | --- | --- | --- | --- |
| O=C(O)CI [Iodoacetic Acid, iodoacetic acid] | not inhibited | 96 | – | – | – | – | – |
| O=C(O)CN(CCN(CC(=O)O)CC(=O)O)CC(=O)O [EDTA, ethylene-diaminetetraacetic acid] | not inhibited | 91 | – | – | – | – | – |
| O=C(O)c1cc[c]([Hg][Cl])cc1 [PCMB, p-chloromercuribenzoate] | not inhibited | 91 | – | – | – | – | – |
| CCCCCCCCCCCCOS(=O)(=O)[O-].[Na+] [SDS, sodium dodecylsulfate] | slightly inhibited | 74 | – | – | – | – | – |
| O=S(=O)(F)Cc1ccccc1 [PMSF, phenyl methanesulfonyl fluoride] | inhibited | 0 | – | – | – | – | – |
| B1 | – | – | 6,500 U/mg protein | 9.8 | 50 °C | 10.5 | 888 U/mg protein |
| B2 | – | – | 2,900 U/mg protein | 7.5-8.0 | 55 °C | 10.5 | – |
| B3 | – | – | 2,200 U/mg protein | 7.8 | – | 10.5 | 436 U/mg protein |
